T1: PCLO, Q9Y6V0
T1 sequence (Q9Y6V0 4491-4600, limits assumed, looked up): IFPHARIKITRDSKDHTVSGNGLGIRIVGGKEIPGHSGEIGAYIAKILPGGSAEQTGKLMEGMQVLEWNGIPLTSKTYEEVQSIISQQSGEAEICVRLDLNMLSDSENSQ

T2: HTRA3, P83110
T2 sequence (P83110 354-453, limits assumed, looked up): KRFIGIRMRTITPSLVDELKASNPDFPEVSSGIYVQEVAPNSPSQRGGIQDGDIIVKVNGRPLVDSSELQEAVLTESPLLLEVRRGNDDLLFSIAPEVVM

T3: RAPGEF6, Q8TEU7
T3 sequence (Q8TEU7 525-625, limits assumed, looked up): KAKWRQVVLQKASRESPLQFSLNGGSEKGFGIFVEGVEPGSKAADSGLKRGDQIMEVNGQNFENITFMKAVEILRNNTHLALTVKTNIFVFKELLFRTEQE

T4: SNTG1, Q9NSN8
T4 sequence (Q9NSN8 52-150, limits assumed, looked up): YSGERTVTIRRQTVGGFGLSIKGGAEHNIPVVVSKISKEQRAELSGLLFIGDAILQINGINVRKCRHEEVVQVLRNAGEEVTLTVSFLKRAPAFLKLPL

T5: LIN7B, Q9HAP6
T5 sequence (Q9HAP6 88-185, limits assumed, looked up): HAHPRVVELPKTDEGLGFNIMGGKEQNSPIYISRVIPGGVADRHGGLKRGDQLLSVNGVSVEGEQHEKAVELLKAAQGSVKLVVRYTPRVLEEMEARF

T6: DLG3_1, Q92796
T6 sequence (Q92796 125-227, limits assumed, looked up): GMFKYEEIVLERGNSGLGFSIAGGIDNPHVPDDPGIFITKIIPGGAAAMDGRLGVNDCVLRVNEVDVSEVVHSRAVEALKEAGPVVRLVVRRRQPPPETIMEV

T7: TIAM2, Q8IVF5
T7 sequence (Q8IVF5 885-986, limits assumed, looked up): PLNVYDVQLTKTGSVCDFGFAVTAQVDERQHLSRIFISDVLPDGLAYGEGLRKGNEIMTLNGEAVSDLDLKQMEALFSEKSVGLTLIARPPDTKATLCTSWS

T8: PDZD2_2, O15018
T8 sequence (O15018 329-429, limits assumed, looked up): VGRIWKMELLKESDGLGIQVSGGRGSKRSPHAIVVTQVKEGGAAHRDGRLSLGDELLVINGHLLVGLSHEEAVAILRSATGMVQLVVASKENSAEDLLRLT

T9: TX1BP3, O14907
T9 sequence (O14907 10-122, limits assumed, looked up): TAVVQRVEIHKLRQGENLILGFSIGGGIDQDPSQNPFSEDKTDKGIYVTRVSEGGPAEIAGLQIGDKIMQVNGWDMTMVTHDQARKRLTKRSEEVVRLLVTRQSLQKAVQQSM

B1: SCN8A, Q9UQD0 (peptide)
chain: RQKEVRESKC
B2: ZSCAN30, Q86W11 (peptide)
chain: MQHQRTHTRV
B3: TRPV6, Q9H1D0 (peptide)
chain: EDGESWEYQI
B4: GPR12, P47775 (peptide)
chain: AQRARSPSDV

biological target: GRIP2_4, Q9C0E4; assay: holdup assay; design: key: below the threshold = too weak to quantify, mostly under pKd 3.1 to 4; conditions: plain residues with an end cap or a label only (N-terminal biotin on a linker: ado-ado)
Sequence (Q9C0E4 446-548): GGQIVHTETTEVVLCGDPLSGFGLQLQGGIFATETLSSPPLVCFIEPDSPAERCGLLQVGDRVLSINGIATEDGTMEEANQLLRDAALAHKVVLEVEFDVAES

| Binder | pKd |
| --- | --- |
| B1 | below the threshold |
| B2 | below the threshold |
| B3 | below the threshold |
| B4 | below the threshold |

biological target: Inadl_6, Q8NI35; assay: holdup assay; design: key: below the threshold = too weak to quantify, mostly under pKd 3.1 to 4; conditions: plain residues with an end cap or a label only (N-terminal biotin on a linker: ado-ado)
Sequence (Q8NI35 1058-1167): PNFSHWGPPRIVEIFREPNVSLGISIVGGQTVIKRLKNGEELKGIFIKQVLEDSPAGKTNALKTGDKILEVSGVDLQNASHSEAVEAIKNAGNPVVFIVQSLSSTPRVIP

| Binder | pKd |
| --- | --- |
| B1 | below the threshold |
| B2 | below the threshold |
| B3 | below the threshold |
| B4 | below the threshold |

biological target: TJP2_1, Q9UDY2; assay: holdup assay; design: key: below the threshold = too weak to quantify, mostly under pKd 3.1 to 4; conditions: plain residues with an end cap or a label only (N-terminal biotin on a linker: ado-ado)
Sequence (Q9UDY2 24-128): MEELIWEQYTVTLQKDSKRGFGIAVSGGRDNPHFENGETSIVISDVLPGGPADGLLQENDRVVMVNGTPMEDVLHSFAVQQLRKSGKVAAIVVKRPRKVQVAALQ

| Binder | pKd |
| --- | --- |
| B1 | below the threshold |
| B2 | 4.16 |
| B3 | below the threshold |
| B4 | below the threshold |

biological target: T1, PCLO, Q9Y6V0; assay: holdup assay; design: key: below the threshold = too weak to quantify, mostly under pKd 3.1 to 4; conditions: plain residues with an end cap or a label only (N-terminal biotin on a linker: ado-ado)

| Binder | pKd |
| --- | --- |
| B1 | below the threshold |
| B2 | below the threshold |
| B3 | below the threshold |
| B4 | below the threshold |

biological target: T2, HTRA3, P83110; assay: holdup assay; design: key: below the threshold = too weak to quantify, mostly under pKd 3.1 to 4; conditions: plain residues with an end cap or a label only (N-terminal biotin on a linker: ado-ado)

| Binder | pKd |
| --- | --- |
| B1 | 3.5 |
| B2 | below the threshold |
| B3 | below the threshold |
| B4 | below the threshold |

biological target: T3, RAPGEF6, Q8TEU7; assay: holdup assay; design: key: below the threshold = too weak to quantify, mostly under pKd 3.1 to 4; conditions: plain residues with an end cap or a label only (N-terminal biotin on a linker: ado-ado)

| Binder | pKd |
| --- | --- |
| B1 | below the threshold |
| B2 | below the threshold |
| B3 | below the threshold |
| B4 | below the threshold |

biological target: T4, SNTG1, Q9NSN8; assay: holdup assay; design: key: below the threshold = too weak to quantify, mostly under pKd 3.1 to 4; conditions: plain residues with an end cap or a label only (N-terminal biotin on a linker: ado-ado)

| Binder | pKd |
| --- | --- |
| B1 | 3.77 |
| B2 | below the threshold |
| B3 | 3.82 |
| B4 | below the threshold |

biological target: PDLIM1, O00151; assay: holdup assay; design: key: below the threshold = too weak to quantify, mostly under pKd 3.1 to 4; conditions: plain residues with an end cap or a label only (N-terminal biotin on a linker: ado-ado)
Sequence (O00151 1-87): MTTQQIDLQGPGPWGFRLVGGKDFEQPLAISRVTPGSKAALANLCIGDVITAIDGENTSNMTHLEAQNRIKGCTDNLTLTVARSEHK

| Binder | pKd |
| --- | --- |
| B1 | below the threshold |
| B2 | below the threshold |
| B3 | below the threshold |
| B4 | below the threshold |

biological target: IL16_4, Q14005; assay: holdup assay; design: key: below the threshold = too weak to quantify, mostly under pKd 3.1 to 4; conditions: plain residues with an end cap or a label only (N-terminal biotin on a linker: ado-ado)
Sequence (Q14005 1229-1329): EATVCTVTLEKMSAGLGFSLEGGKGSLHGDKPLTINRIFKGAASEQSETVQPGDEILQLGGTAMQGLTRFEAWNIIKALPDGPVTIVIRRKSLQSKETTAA

| Binder | pKd |
| --- | --- |
| B1 | 3.68 |
| B2 | below the threshold |
| B3 | 3.5 |
| B4 | below the threshold |

biological target: MAGI2_3, Q86UL8; assay: holdup assay; design: key: below the threshold = too weak to quantify, mostly under pKd 3.1 to 4; conditions: plain residues with an end cap or a label only (N-terminal biotin on a linker: ado-ado)
Sequence (Q86UL8 600-682): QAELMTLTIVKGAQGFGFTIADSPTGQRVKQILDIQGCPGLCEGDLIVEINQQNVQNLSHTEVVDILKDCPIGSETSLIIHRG

| Binder | pKd |
| --- | --- |
| B1 | 3.51 |
| B2 | below the threshold |
| B3 | below the threshold |
| B4 | 3.7 |

biological target: SCRIB_3, Q14160; assay: holdup assay; design: key: below the threshold = too weak to quantify, mostly under pKd 3.1 to 4; conditions: plain residues with an end cap or a label only (N-terminal biotin on a linker: ado-ado)
Sequence (Q14160 999-1103): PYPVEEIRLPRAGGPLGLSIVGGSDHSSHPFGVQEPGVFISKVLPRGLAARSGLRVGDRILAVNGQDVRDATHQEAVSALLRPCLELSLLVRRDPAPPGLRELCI

| Binder | pKd |
| --- | --- |
| B1 | 4.16 |
| B2 | 3.51 |
| B3 | 4.11 |
| B4 | below the threshold |

biological target: TJP1_3, Q07157; assay: holdup assay; design: key: below the threshold = too weak to quantify, mostly under pKd 3.1 to 4; conditions: plain residues with an end cap or a label only (N-terminal biotin on a linker: ado-ado)
Sequence (Q07157 416-512): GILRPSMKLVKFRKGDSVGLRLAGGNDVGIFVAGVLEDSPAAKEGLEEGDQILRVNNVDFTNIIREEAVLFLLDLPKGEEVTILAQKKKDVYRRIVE

| Binder | pKd |
| --- | --- |
| B1 | below the threshold |
| B2 | below the threshold |
| B3 | below the threshold |
| B4 | below the threshold |

biological target: GOPC, Q9HD26; assay: holdup assay; design: key: below the threshold = too weak to quantify, mostly under pKd 3.1 to 4; conditions: plain residues with an end cap or a label only (N-terminal biotin on a linker: ado-ado)

| Binder | pKd |
| --- | --- |
| B1 | below the threshold |
| B2 | 4.41 |
| B3 | below the threshold |
| B4 | below the threshold |

biological target: T5, LIN7B, Q9HAP6; assay: holdup assay; design: key: below the threshold = too weak to quantify, mostly under pKd 3.1 to 4; conditions: plain residues with an end cap or a label only (N-terminal biotin on a linker: ado-ado)

| Binder | pKd |
| --- | --- |
| B1 | 3.78 |
| B2 | below the threshold |
| B3 | 3.59 |
| B4 | 3.75 |

biological target: Inadl_9, Q8NI35; assay: holdup assay; design: key: below the threshold = too weak to quantify, mostly under pKd 3.1 to 4; conditions: plain residues with an end cap or a label only (N-terminal biotin on a linker: ado-ado)
Sequence (Q8NI35 1530-1615): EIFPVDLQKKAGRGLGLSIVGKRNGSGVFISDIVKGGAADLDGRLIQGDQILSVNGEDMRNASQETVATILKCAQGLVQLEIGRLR

| Binder | pKd |
| --- | --- |
| B1 | below the threshold |
| B2 | 3.62 |
| B3 | 3.83 |
| B4 | below the threshold |

biological target: T6, DLG3_1, Q92796; assay: holdup assay; design: key: below the threshold = too weak to quantify, mostly under pKd 3.1 to 4; conditions: plain residues with an end cap or a label only (N-terminal biotin on a linker: ado-ado)

| Binder | pKd |
| --- | --- |
| B1 | below the threshold |
| B2 | 4.03 |
| B3 | below the threshold |
| B4 | below the threshold |

biological target: LAP2, Q96RT1; assay: holdup assay; design: key: below the threshold = too weak to quantify, mostly under pKd 3.1 to 4; conditions: plain residues with an end cap or a label only (N-terminal biotin on a linker: ado-ado)
Sequence (Q96RT1 other isoform, or with tags, fused parts or gaps): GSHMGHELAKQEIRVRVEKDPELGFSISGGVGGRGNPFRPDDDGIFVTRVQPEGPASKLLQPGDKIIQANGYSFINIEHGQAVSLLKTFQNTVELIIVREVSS

| Binder | pKd |
| --- | --- |
| B1 | below the threshold |
| B2 | 3.89 |
| B3 | below the threshold |
| B4 | 3.51 |

biological target: T7, TIAM2, Q8IVF5; assay: holdup assay; design: key: below the threshold = too weak to quantify, mostly under pKd 3.1 to 4; conditions: plain residues with an end cap or a label only (N-terminal biotin on a linker: ado-ado)

| Binder | pKd |
| --- | --- |
| B1 | 4.02 |
| B2 | 3.89 |
| B3 | 3.95 |
| B4 | 4.05 |

biological target: DLG4_3, P78352; assay: holdup assay; design: key: below the threshold = too weak to quantify, mostly under pKd 3.1 to 4; conditions: plain residues with an end cap or a label only (N-terminal biotin on a linker: ado-ado)
Sequence (P78352 306-403): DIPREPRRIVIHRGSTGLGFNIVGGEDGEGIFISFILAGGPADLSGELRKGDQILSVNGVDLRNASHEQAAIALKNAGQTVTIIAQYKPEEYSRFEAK

| Binder | pKd |
| --- | --- |
| B1 | 4.6 |
| B2 | 4.22 |
| B3 | below the threshold |
| B4 | below the threshold |

biological target: T8, PDZD2_2, O15018; assay: holdup assay; design: key: below the threshold = too weak to quantify, mostly under pKd 3.1 to 4; conditions: plain residues with an end cap or a label only (N-terminal biotin on a linker: ado-ado)

| Binder | pKd |
| --- | --- |
| B1 | 3.94 |
| B2 | 3.95 |
| B3 | 4.66 |
| B4 | 4.71 |

biological target: T9, TX1BP3, O14907; assay: holdup assay; design: key: below the threshold = too weak to quantify, mostly under pKd 3.1 to 4; conditions: plain residues with an end cap or a label only (N-terminal biotin on a linker: ado-ado)

| Binder | pKd |
| --- | --- |
| B1 | 3.96 |
| B2 | 3.57 |
| B3 | below the threshold |
| B4 | below the threshold |

biological target: NHERF4_2, Q86UT5; assay: holdup assay; design: key: below the threshold = too weak to quantify, mostly under pKd 3.1 to 4; conditions: plain residues with an end cap or a label only (N-terminal biotin on a linker: ado-ado)
Sequence (Q86UT5 220-308): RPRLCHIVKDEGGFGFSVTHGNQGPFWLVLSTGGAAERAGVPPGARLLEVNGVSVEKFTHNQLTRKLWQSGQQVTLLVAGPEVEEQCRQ

| Binder | pKd |
| --- | --- |
| B1 | below the threshold |
| B2 | below the threshold |
| B3 | below the threshold |
| B4 | below the threshold |

biological target: Inadl_1, Q8NI35; assay: holdup assay; design: key: below the threshold = too weak to quantify, mostly under pKd 3.1 to 4; conditions: plain residues with an end cap or a label only (N-terminal biotin on a linker: ado-ado)
Sequence (Q8NI35 113-229): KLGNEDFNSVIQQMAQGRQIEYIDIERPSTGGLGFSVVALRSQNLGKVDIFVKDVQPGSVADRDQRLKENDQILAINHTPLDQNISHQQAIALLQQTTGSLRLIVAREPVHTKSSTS

| Binder | pKd |
| --- | --- |
| B1 | below the threshold |
| B2 | below the threshold |
| B3 | 4.41 |
| B4 | below the threshold |

biological target: DLG4_2, P78352; assay: holdup assay; design: key: below the threshold = too weak to quantify, mostly under pKd 3.1 to 4; conditions: plain residues with an end cap or a label only (N-terminal biotin on a linker: ado-ado)
Sequence (P78352 155-259): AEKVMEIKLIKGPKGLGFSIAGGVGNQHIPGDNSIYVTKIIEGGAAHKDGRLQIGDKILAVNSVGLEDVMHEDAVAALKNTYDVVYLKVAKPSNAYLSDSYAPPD

| Binder | pKd |
| --- | --- |
| B1 | 3.52 |
| B2 | 4.95 |
| B3 | below the threshold |
| B4 | 3.92 |

biological target: HTRA2, O43464; assay: holdup assay; design: key: below the threshold = too weak to quantify, mostly under pKd 3.1 to 4; conditions: plain residues with an end cap or a label only (N-terminal biotin on a linker: ado-ado)
Sequence (O43464 355-458): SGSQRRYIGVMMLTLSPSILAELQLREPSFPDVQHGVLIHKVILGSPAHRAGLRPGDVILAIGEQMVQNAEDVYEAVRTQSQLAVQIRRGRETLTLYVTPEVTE

| Binder | pKd |
| --- | --- |
| B1 | below the threshold |
| B2 | below the threshold |
| B3 | below the threshold |
| B4 | below the threshold |

biological target: LNX1_1, Q8TBB1; assay: holdup assay; design: key: below the threshold = too weak to quantify, mostly under pKd 3.1 to 4; conditions: plain residues with an end cap or a label only (N-terminal biotin on a linker: ado-ado)
Sequence (Q8TBB1 261-371): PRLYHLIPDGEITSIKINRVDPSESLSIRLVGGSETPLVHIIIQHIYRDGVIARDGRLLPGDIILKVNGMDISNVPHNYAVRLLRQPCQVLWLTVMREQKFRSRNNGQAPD

| Binder | pKd |
| --- | --- |
| B1 | below the threshold |
| B2 | 3.49 |
| B3 | below the threshold |
| B4 | 3.79 |

biological target: FRMPD2_1, Q68DX3; assay: holdup assay; design: key: below the threshold = too weak to quantify, mostly under pKd 3.1 to 4; conditions: plain residues with an end cap or a label only (N-terminal biotin on a linker: ado-ado)
Sequence (Q68DX3 770-861): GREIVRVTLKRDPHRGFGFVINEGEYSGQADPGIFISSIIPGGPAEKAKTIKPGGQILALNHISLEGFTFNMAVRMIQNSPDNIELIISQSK

| Binder | pKd |
| --- | --- |
| B1 | below the threshold |
| B2 | 3.88 |
| B3 | below the threshold |
| B4 | below the threshold |

biological target: FRMPD2_2, Q68DX3; assay: holdup assay; design: key: below the threshold = too weak to quantify, mostly under pKd 3.1 to 4; conditions: plain residues with an end cap or a label only (N-terminal biotin on a linker: ado-ado)
Sequence (Q68DX3 944-1038): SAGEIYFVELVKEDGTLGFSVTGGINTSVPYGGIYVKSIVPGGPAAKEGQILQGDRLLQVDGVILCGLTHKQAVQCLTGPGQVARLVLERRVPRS

| Binder | pKd |
| --- | --- |
| B1 | below the threshold |
| B2 | below the threshold |
| B3 | below the threshold |
| B4 | below the threshold |

From paper PMC9482650, “Quantitative fragmentomics allow affinity mapping of interactomes” (Nature Communications, 2022)
